Laboratory results taken from patent publication US20040210041A1.
Positions of bridges follow the written chain, without caps; N, C: chain ends. Groups on a side chain read outwards from the residue. Chains are numbered I, II in the order given. *: point of attachment. Biotin = O=C1N[C@H]2[C@H](CS[C@H]2CCCCC(=O)*)N1; AEEA = NCCOCCOCC(=O)O

Experiments:
[1] = target: KDR (VEGFR-2), full-length receptor on cells (human), P35968; experiment: competition with 300 pM 125I-VEGF on KDR-transfected 293H cells; peptide 30 µM; settings: remark: other sources report otherwise
[2] = target: KDR (VEGFR-2), full-length receptor on cells (human), P35968; experiment: competition with 300 pM 125I-VEGF on KDR-transfected 293H cells; peptide 0.3 µM; settings: remark: other sources report otherwise
[3] = target: KDR (VEGFR-2), full-length receptor on cells (human), P35968; experiment: specific binding of neutravidin-HRP complex at 3.33 nM to KDR-transfected cells; reference P5-XB (1X) + P1-XB (3X)
[4] = target: KDR (VEGFR-2), full-length receptor on cells (human), P35968; experiment: specific binding of neutravidin-HRP complex at 2.78 nM to KDR-transfected cells; reference P1-XB (3X) + P6-XB (1X) at 5.55 nM

Sequence of KDR (VEGFR-2), full-length receptor on cells (human), P35968 (P35968 20-1356): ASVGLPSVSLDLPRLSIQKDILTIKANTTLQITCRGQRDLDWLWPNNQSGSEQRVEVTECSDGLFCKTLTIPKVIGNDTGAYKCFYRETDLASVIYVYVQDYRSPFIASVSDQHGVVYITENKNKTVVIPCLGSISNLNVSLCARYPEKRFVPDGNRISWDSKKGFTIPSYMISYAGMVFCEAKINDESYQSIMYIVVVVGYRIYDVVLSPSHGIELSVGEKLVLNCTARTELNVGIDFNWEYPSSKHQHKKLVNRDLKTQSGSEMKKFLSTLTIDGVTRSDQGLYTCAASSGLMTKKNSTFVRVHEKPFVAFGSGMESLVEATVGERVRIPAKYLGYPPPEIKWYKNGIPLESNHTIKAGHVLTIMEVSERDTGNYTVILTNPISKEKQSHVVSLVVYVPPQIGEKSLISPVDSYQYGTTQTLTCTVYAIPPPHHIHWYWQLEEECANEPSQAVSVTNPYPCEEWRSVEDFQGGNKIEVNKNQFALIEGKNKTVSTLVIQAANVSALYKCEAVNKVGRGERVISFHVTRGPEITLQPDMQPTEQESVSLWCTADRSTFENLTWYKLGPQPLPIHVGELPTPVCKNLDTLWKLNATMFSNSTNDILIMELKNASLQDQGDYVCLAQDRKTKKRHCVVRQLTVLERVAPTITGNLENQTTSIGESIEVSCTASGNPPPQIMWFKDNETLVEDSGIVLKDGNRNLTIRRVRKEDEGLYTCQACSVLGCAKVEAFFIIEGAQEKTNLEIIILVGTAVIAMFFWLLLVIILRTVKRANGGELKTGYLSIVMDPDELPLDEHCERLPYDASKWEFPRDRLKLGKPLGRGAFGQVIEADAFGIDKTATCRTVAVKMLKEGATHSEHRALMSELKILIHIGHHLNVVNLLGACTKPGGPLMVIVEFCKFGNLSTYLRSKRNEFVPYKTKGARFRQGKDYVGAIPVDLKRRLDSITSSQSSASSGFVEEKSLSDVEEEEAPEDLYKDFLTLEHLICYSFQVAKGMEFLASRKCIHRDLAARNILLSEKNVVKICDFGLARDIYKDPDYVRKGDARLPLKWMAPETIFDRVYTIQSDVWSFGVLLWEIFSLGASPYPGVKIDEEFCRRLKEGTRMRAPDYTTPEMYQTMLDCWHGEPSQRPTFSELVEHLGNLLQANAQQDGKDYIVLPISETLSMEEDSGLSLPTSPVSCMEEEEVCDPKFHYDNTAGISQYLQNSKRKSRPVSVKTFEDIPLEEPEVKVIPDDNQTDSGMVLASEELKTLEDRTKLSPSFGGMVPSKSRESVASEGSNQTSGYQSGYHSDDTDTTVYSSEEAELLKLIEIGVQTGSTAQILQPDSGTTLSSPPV

## Ac-AGPKWCEEDWYYCMITGTGGGK([AEEA-AEEA-Biotin])-NH2 (disulfide 6-13 (inferred)) [P5-XB]
[1]
  % inhibition of 125I-labeled VEGF binding: 48%
[2]
  % inhibition of 125I-labeled VEGF binding: 24.4%

B1: P1-XB (1X) + P6-XB (1X) + P5-XB (2X) / neutravidin-HRP (peptide, not shown: large carriers; small tags and cut ends)
peptide 1: Ac-GDSRVCWEDSWGGEVCFRYDPGGGK([AEEA-AEEA-Biotin])-NH2
peptide 2: Ac-AGPKWCEEDWYYCMITGTGGGK([AEEA-AEEA-Biotin])-NH2
modifications: disulfide I:6-I:16, II:6-II:13 (inferred); not fully specified; also: bound via biotin to neutravidin-HRP
[3]
  Heteromer/Monomer Ratio: 213 fold

B2: P1-XB (1X) + P6-XB (2X) + P5-XB (1X) / neutravidin-HRP (peptide, not shown: large carriers; small tags and cut ends)
peptide 1: Ac-GDSRVCWEDSWGGEVCFRYDPGGGK([AEEA-AEEA-Biotin])-NH2
peptide 2: Ac-AGPKWCEEDWYYCMITGTGGGK([AEEA-AEEA-Biotin])-NH2
modifications: disulfide I:6-I:16, II:6-II:13 (inferred); not fully specified; also: bound via biotin to neutravidin-HRP
[3]
  Heteromer/Monomer Ratio: 242 fold

B3: P1-XB (2X) + P6-XB (1X) + P5-XB (1X) / neutravidin-HRP (peptide, not shown: large carriers; small tags and cut ends)
peptide 1: Ac-GDSRVCWEDSWGGEVCFRYDPGGGK([AEEA-AEEA-Biotin])-NH2
peptide 2: Ac-AGPKWCEEDWYYCMITGTGGGK([AEEA-AEEA-Biotin])-NH2
modifications: disulfide I:6-I:16, II:6-II:13 (inferred); not fully specified; also: bound via biotin to neutravidin-HRP
[3]
  Heteromer/Monomer Ratio: 109 fold

B4: P1-XB (1X) + P6-XB (1X) + P12-XB (2X) / neutravidin-HRP (peptide, not shown: large carriers; small tags and cut ends)
peptide 1: Ac-GDSRVCWEDSWGGEVCFRYDPGGGK([AEEA-AEEA-Biotin])-NH2
peptide 2: Ac-AGPTWCEDDWYYCWLFGTGGGK([AEEA-AEEA-Biotin])-NH2
modifications: disulfide I:6-I:16, II:6-II:13 (inferred); not fully specified; also: bound via biotin to neutravidin-HRP
[4]
  Heteromer/Monomer Ratio: 47 fold
